In the FLAb antibody collection (doi:10.7554/elife.23156):

B1: scFv; the commonest letter at each place (parent)
chain 1: EVKLDETGGGLVQPGRPMKLSCVASGFTFSDYWMNWVRQSPEKGLEWVAQIRNKPYNYETYYSDSVKGRFTISRDDSKSSVYLQMNNLRVEDMGIYYCTGSYYGMDYWGQGTSVTVS
chain 2: DVVMTQTPLSLPVSLGDQASISCRSSQSLVHSNGNTYLRWYLQKPGQSPKVLIYKVSNRFSGVPDRFSGSGSGTDFTLKISRVEAEDLGVYFCSQSTHVPWTFGGGTKLEIK

How the values were obtained:
fluorescein = variants of: B1; experiment: Kd (Tite-Seq); conditions: with fluorescein; format: scFv 4-4-20, heavy + light
[1] = variants of: B1; experiment: yeast surface expression (ratio to wild type); higher = more expressed; conditions: format: scFv 4-4-20, heavy + light

Row | Variant | Kd (fluorescein) [µM] | yeast surface expression [1]
1 | chain 1 F29W D31F | ≥ 10 | 0.475
2 | chain 1 F29W M34W | ≥ 10 | 0.913
3 | chain 1 F29W N35G | ≥ 10 | 0.71
4 | chain 1 F29W S30I | ≥ 10 | 0.599
5 | chain 1 F29W S30V N35H | ≥ 10 | 0.547
6 | chain 1 F29W W33S | ≥ 10 | 0.431
7 | chain 1 F29W W36Y | ≥ 10 | 0.591
8 | chain 1 F29Y D31E W33G | ≥ 10 | 1.63
9 | chain 1 F29Y D31P | ≥ 10 | 0.888
10 | chain 1 F29Y M34E | ≥ 10 | 0.542
11 | chain 1 F29Y M34K | ≥ 10 | 0.646
12 | chain 1 F29Y N35A | ≥ 10 | 0.842
13 | chain 1 F29Y N35H | ≥ 10 | 0.732
14 | chain 1 F29Y N35W | ≥ 10 | 0.0981
15 | chain 1 F29Y V37L | ≥ 10 | 0.669
16 | chain 1 F29Y Y32R | ≥ 10 | 0.761
17 | chain 1 F29Y Y32S | ≥ 10 | 0.95
18 | chain 1 G100A D106W | ≥ 10 | 0.393
19 | chain 1 G100A G104L D106M | ≥ 10 | 0.244
20 | chain 1 G100A S101F | ≥ 10 | 0.652
21 | chain 1 G100A S101L | ≥ 10 | 0.553
22 | chain 1 G100A Y102R G109C | ≥ 10 | 0.266
23 | chain 1 G100C D106G | ≥ 10 | 0.553
24 | chain 1 G100C D106Q | ≥ 10 | 0.754
25 | chain 1 G100C G104I | ≥ 10 | 0.267
26 | chain 1 G100C M105F | ≥ 10 | 0.642
27 | chain 1 G100C S101C | ≥ 10 | 0.624

Continued, in another order:

Row | Kd (fluorescein) [µM] | Variant | yeast surface expression [1]
28 | 0.00967 | chain 1 F29V | 0.929
29 | 1.47 | chain 1 F29V D31E | 0.753
30 | ≥ 10 | chain 1 F29V M34E | 0.715
31 | ≥ 10 | chain 1 F29V N35D | 0.862
32 | ≥ 10 | chain 1 F29V N35V | 0.239
33 | 5.96 | chain 1 F29V V37G | 0.65
34 | ≥ 10 | chain 1 F29V W33N | 0.722
35 | ≥ 10 | chain 1 F29V W36L | 0.332
36 | ≥ 10 | chain 1 F29V W36S | 0.52
37 | 8.13 | chain 1 F29V Y32S | 0.999
38 | 0.185 | chain 1 F29V Y32W M34W | 1.07
39 | 0.0562 | chain 1 F29W | 0.661
40 | 5.37 | chain 1 F29W D31G | 0.567
41 | 0.0221 | chain 1 F29W D31H | 0.626
42 | 0.000783 | chain 1 F29Y | 0.978
43 | 4.37 | chain 1 F29Y M34Q V37M | 0.485
44 | 0.216 | chain 1 F29Y S30A D31M | 0.826
45 | 0.0038 | chain 1 F29Y S30D | 0.937
46 | 0.00194 | chain 1 F29Y V37I | 0.9
47 | 0.228 | chain 1 F29Y V37P | 2.26
48 | 0.00708 | chain 1 F29Y Y32A | 1.02
49 | 0.205 | chain 1 F29Y Y32H | 0.756
50 | 0.0017 | chain 1 G100A | 0.964
51 | 0.0245 | chain 1 G100A M105Q | 1.15
52 | ≤ 0.000316 | chain 1 G100A W108Y | 0.892
53 | 3.2 | chain 1 G100A Y103K G109T | 0.753
54 | 5.96 | chain 1 G100A Y103L W108G | 0.436
55 | 0.00162 | chain 1 G100C | 0.893
56 | 0.00343 | chain 1 G100C D106N | 0.768
57 | 0.00606 | chain 1 G100C S101A | 0.711
